Assay results from US10253087B2, “CCR2 antagonist peptides” (UNIVERSITE PIERRE ET MARIE CURIE (Paris 6), priority 2011, dated 2019).
“Also recorded” adds a separate entry of the source. Read-outs that look alike come from different tables or passages of the source. Non-standard residues stand in square brackets, D forms with d. Residues, ends and D or L forms follow the SMILES beside them.

Legend:
[1] = target: T1, CCR2 (Homo sapiens, UniProt P41597); experiment: Radioligand binding assay, I125-CCL2 on HEK-CCR2; conditions: competition binding
T1 construct: expressed in transfected cells
T1 sequence (P41597 whole entry): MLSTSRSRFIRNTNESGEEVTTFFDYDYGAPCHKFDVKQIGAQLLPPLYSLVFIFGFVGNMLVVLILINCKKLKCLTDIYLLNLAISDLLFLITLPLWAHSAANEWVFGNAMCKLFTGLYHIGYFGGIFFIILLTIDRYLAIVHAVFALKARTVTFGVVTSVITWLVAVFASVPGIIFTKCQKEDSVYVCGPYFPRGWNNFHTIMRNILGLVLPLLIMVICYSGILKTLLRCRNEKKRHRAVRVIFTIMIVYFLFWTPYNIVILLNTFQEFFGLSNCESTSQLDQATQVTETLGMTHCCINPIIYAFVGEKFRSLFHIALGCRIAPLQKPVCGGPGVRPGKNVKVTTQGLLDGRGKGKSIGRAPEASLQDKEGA
Method: Binding assay was carried out using I125-CCL2 (specific activity 2200 Ci/mmol; Perkin elmer, inc.). 300.000 HEK cells stably expressing CCR2 and native cells were incubated with I125-CCL2 in the presence or absence of recombinant human CCL2 (10 nM or 100 nM) or ECL1 (C) inverso (1-10-30 μM) in 200 μl buffer (PBS containing 0.5% BSA and 0.01% HEPES). After 1 h incubation at 37° C., cells were washed three times with 1 ml of cold washing solution. Gamma emissions were then counted in the cell pellet with gamma counter. Non-specific binding represented less than 15% of total binding and was subtracted from total binding to define specific I125-CCL2 binding.

[2] = target: T1, CCR2; experiment: CCL2-Alexa 647 binding assay on HEK-CCR2; conditions: competition binding
Method: Binding was performed with the same cells. 200.000 cells were pre-incubated for 30 minutes at 4° C. in 100 μl buffer (PBS containing 0.5% BSA, 0.2% EDTA and NaN3 0.01%) with recombinant human CCL2 (50 nM, 100 nM and 500 nM), ECL1 (C) inverso (11.3 μM, 28.2 μM and 56.3 μM) or with buffer. After, 50 nM CCL2-alexa 647 (Almac) were add for 30 minutes at 4° C. and washed three times with 1 ml of cold buffer. Cells were incubated with 10 μl anti-human-CCR2 (BD pharmingen) for 30 minutes at 4° C. in the dark and washed three times with 1 ml of cold buffer. Cells and beads were counted on FACSCalibur flow cytometer and data were analysed with FlowJo software.

[3] = target: T1, CCR2; experiment: Calcium flux assay, CCL2-induced calcium release on HEK-CCR2; assay type: cell-based
Method: Cytosolic-free calcium assay was measured by fluorescent detection with the HitHunter™ Calcium No WashPLUS (Ca NWPLUS) assay kit (DiscoveRex, #90-0091). Briefly, HEK or CHO expressing the chemokine receptor of interest (5.104) were plated overnight at 37° C., 5% CO2 before pre-loading with a calcium sensitive dye (Ca NWPLUS working reagent) supplemented with probenecid (Sigma-Aldrich, #P8761) to avoid calcium dye leakage from the cells, for 1 h at 37° C. Cells were then treated with control buffer or peptides at various concentrations and appropriate agonist. Signal was measured as function of time on a fluorescent plate reader equipped with fluidic handling (FlexStation 3, Molecular Devices). Maximum change in fluorescence over baseline (peak signal) was used to determine agonist response, as quantified using SoftMax Pro software. All experiments were run in triplicate, and results are representative of at least three independent experiments.

[4] = target: T1, CCR2; experiment: β-arrestin recruitment assay (PathHunter), CCL2-induced; assay type: cell-based; conditions: HEK-CCR2
Method: Recruitment of β-arrestin in live cells was measured by chemoluminescence detection with the PathHunter™ eXpress β-Arrestin assay kit (DiscoveRex, #93-00446E1). Briefly, 100 μL PathHunter eXpress cells were expressing CCR2 were plated on a 96-well tissue culture treated plate for 48 hours at 37° C., 5% CO2. Cells were first incubated with ECL1 (C) inverso or control peptide and before adding 10 μL of the agonist, CCL2 diluted in OCC medium to achieve the EC80 determined beforehand or with OCC medium alone, for respectively 60 and 90 min at 37° C., 5% CO2. The reaction was stopped by adding 55 μL of the Working Detection Reagent Solution (PathHunter detection reagent) for 90 min at Room temperature. Chemoluminescent signal was read on a luminescent plate reader (TriStar LB 941, Berthold Technologies, Thoiry, France). Assays were run in triplicates.

[5] = test system: HEK-CCR2
[6] = test system: mouse monocytes; experiment: Migration assay, mouse monocytes / leukocytes (MBMC); assay type: cell-based; conditions: up to 500 μM
Method: (§1) Migration assays were performed in 24-transwell inserts (Corning Costar Avon, France) with 8 μm polycarbonate filter for HEK or CHO cells and 5 μm for MBMC. […] The bottom of each well was filled with 600 μL pre-warmed chemotaxis buffer at indicated chemokine concentration. The plates were then incubated for 4 hours at 37° C. in a 5% CO2 atmosphere. […] Before counting the cells by flow cytometry, mouse leukocytes were immunophenotyped with a mix of fluorescent antibodies (anti-mouse Ly6G-PE, anti-mouse NK1.1-PE, anti-mouse […], anti-mouse 7/4-FITC, BD Biosciences) and HEK expressing chemokine receptors with appropriate fluorescent anti-human chemokine receptor. Data were analysed with FlowJo software and results are expressed as a number of cells migrating in the presence or in the absence of chemoattractant. Experiments were run in triplicate, and results are representative of at least three independent experiments.

[7] = test system: MBCM
Method: Mouse bone marrow cells (MBMC) were obtained from C57BL/6 mice.
Cells were immunophenotyped by adding a mix of fluorescent antibodies (anti LY-6G-PE, anti CD11b-PerCP, anti 7/4-FITC, anti F4/80-APC, anti NK-PE) and counted by FACSCalibur flow cytometry with predetermined number of beads (Polybead, carboxylate microsphere Polyscience, Inc) added to the samples. Data were analyzed with FlowJo.

[8] = target: T2, CX3CR1 (Homo sapiens, UniProt P49238); experiment: Migration assay, HEK-CX3CR1 induced by CX3CL1; assay type: cell-based; conditions: up to 500 μM
T2 construct: expressed in transfected cells
T2 sequence (P49238 1-355): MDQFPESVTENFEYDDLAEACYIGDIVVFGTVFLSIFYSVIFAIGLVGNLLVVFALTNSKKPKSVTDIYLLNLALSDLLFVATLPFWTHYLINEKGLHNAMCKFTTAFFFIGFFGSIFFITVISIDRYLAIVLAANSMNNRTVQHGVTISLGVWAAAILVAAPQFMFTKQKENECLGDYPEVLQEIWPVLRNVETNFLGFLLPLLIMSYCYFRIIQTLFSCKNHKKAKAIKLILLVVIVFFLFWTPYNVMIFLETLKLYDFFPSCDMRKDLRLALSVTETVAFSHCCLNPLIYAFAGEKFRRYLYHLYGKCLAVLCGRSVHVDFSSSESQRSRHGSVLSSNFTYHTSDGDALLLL
Method: as §1

[9] = target: T1, CCR2; experiment: Migration assay, HEK-CCR2 induced by CCL2; assay type: cell-based; conditions: up to 500 μM
Method: as §1

[10] = target: T3, CCR5 (Homo sapiens, UniProt P51681); experiment: Migration assay, HEK-CCR5 induced by CCL5; assay type: cell-based; conditions: up to 500 μM
T3 construct: expressed in transfected cells
T3 sequence (P51681 whole entry): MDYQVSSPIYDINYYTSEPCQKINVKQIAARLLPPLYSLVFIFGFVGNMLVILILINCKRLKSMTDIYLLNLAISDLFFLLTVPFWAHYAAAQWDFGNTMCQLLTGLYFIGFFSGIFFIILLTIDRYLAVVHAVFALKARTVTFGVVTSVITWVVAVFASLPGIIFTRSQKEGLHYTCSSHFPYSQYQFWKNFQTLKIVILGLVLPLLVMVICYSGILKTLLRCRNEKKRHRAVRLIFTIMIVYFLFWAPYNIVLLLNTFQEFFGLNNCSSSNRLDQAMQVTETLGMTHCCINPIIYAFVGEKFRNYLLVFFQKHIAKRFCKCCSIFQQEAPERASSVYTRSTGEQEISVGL
Method: as §1

[11] = test system: HEK-CCR2; experiment: Cytotoxicity on HEK-CCR2; conditions: 4 hours of incubation at 37° C., 5% CO2, various concentrations

With “CCL2: chemokine, natural agonist of CCR2” the “displacement of bound [125I]-CCL2 on HEK-CCR2” value [1] was “could displace dose-dependently”, the “displacement of the binding of CCL2-Alexa-647 with HEK-CCR2” value [2] was “could displace dose-dependently; also recorded: displaces dose-dependently” and the “EC80 of CCL2 for calcium release” value [3] was 0.05 µM. For the same compound, the “EC80 of CCL2 for β-arrestin recruitment” value [4] was 0.0125 µM.

“CKLFTGL [ECL1 (C), peptide from extracellular juxtamembranous region of CCR2]” was tested, and the “cytotoxicity on HEK-CCR2” value [5] was “no significant cell death”, the “induction of chemotaxis by the peptide itself, mouse leukocytes” value [6] was “did not induced chemotaxis” and the “cytotoxicity on MBCM” value [7] was “no significant cell death”. For the same compound, the “induction of chemotaxis by the peptide itself, HEK-CX3CR1” value [8] was “did not induced chemotaxis”, the “induction of chemotaxis by the peptide itself, HEK-CCR2” value [9] was “did not induced chemotaxis” and the “induction of chemotaxis by the peptide itself, HEK-CCR5” value [10] was “did not induced chemotaxis”.

In the case of CC(C)C[C@@H](N)C(=O)NCC(=O)N[C@@H](C(=O)N[C@H](Cc1ccccc1)C(=O)N[C@H](CC(C)C)C(=O)N[C@H](CCCCN)C(=O)N[C@H](CS)C(=O)O)[C@H](C)O [ECL1 (C) inverso, LGTFLKC] (H-[dL]G[dT][dF][dL][dK][dC]-OH; N-terminus and C-terminus assumed), the “cytotoxicity on HEK-CCR2” value [11] is reported as “No cytotoxicity effect”.
